Measurements: publication PMC5723419

Target: Aminopeptidase P from Pseudomonas aeruginosa (Pa-PepP) (Pseudomonas aeruginosa PA14)
Experiment: crystal structure

stoichiometry N: 4
Substance: Aminopeptidase P from Pseudomonas aeruginosa (Pa-PepP) (enzyme)
